One block for each binder: values may come before it.
What was measured:
[1] = target: T1, Rattus norvegicus neuronal calcium sensor-1 (NCS-1), full-length, Ca2+-bound (Rattus norvegicus, UniProt P62168 1-190); experiment: crystal structure; NCS-1 (1 mM) with 2-fold excess of GRK1 peptide; 0.12 M alcohols, 0.1 M HEPES/MOPS pH 7.5, 30% PEGMME 550 and PEG 20000, 20 °C; 2.30 Å; conditions: both partners purified
T1 construct: Neuronal calcium sensor-1, Rattus norvegicus, Swiss-Prot P62168, full length (residues 1-190); also called Ca2+/NCS-1; rat NCS-1

[2] = target: T1, Rattus norvegicus neuronal calcium …; experiment: ITC; 1 mM Ca2+/NCS-1 in the syringe titrated into 100 uM D2R peptide in the cell, 25 °C, 50 mM Tris-HCl, 50 mM NaCl, 5 mM CaCl2, pH 7.5; fitted to a sequential model and to a two-site nonsequential model with stoichiometry fixed at 1:2 NCS-1:peptide; conditions: both partners purified

binding result [1]: binds
B1: GRK1 peptide (N terminus of G-protein-coupled receptor kinase 1, residues 1-25) (peptide)
peptide: MDFGSLETVVANSAFIAARGSFDGS
notes: also called RK25; source: synthetic peptide, bought: GenicBio, China (>95% pure)

Kd [2]: 40 ± 6 µM
B2: D2 receptor peptide (D2R peptide) (peptide)
peptide: NIEFRKAFLKILHSR
notes: terminal Arg added to improve solubility; also called D2B (copy in the N-lobe site); D2C (copy in the C-lobe site); source: synthetic peptide, bought: GenicBio, China (>95% pure)

Reference: paper PMC4513130, “Neuronal Calcium Sensor-1 Binds the D2 Dopamine Receptor and G-protein-coupled Receptor Kinase 1 (GRK1) Peptides Using Different Modes of Interactions*” (The Journal of Biological Chemistry, 2015)
